Where “and” joins values, the source holds several entries; their conditions need not be identical. Equal entries are not always repeated. Where two headings read alike, the source gives them in different places.
Experiments:
[1] = molecular target: T1, MICA004.His (human MICA*004 alpha 3 domain, His tagged) (human); experiment: SPR, antibody captured;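 note: SPR with antibody held by surface-bound anti-Fc while His-tagged alpha three domains flow over, Kd derived by fitting a one-to-one binding model to sensograms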
T1 construct: also called huMICA*004 alpha 3-his
T1 chain: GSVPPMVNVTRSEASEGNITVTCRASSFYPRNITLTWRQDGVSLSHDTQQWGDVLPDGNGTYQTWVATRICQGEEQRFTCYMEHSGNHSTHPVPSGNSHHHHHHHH

[2] = molecular target: T2, MICA008.His (human MICA*008 alpha 3 domain, His tagged) (human); experiment: SPR, antibody captured;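 note: SPR with antibody held by surface-bound anti-Fc while His-tagged alpha three domains flow over, Kd derived by fitting a one-to-one binding model to sensograms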
T2 construct: Also used for FPOP (expressed in CHO); also called huMICA*008 alpha 3-his; MICA*008 a3
T2 chain: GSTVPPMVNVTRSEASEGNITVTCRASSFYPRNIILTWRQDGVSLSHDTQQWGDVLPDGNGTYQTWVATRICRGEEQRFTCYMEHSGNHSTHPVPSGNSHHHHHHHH

[3] = molecular target: T3, MICB005.His (human MICB*005 alpha 3 domain, His tagged) (human); experiment: SPR, antibody captured;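 note: SPR with antibody held by surface-bound anti-Fc while His-tagged alpha three domains flow over, Kd derived by fitting a one-to-one binding model to sensograms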
T3 construct: also called huMICB*005 alpha 3-his
T3 chain: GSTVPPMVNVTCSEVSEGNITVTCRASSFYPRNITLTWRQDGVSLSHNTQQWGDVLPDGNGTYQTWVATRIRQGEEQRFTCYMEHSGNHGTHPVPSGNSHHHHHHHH

[4] = molecular target: T4, MICA002.His (human MICA*002 alpha 3 domain, His tagged) (human); experiment: SPR, antibody captured;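 note: SPR with antibody held by surface-bound anti-Fc while His-tagged alpha three domains flow over, Kd derived by fitting a one-to-one binding model to sensograms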
T4 construct: also called huMICA*002 alpha 3-his
T4 chain: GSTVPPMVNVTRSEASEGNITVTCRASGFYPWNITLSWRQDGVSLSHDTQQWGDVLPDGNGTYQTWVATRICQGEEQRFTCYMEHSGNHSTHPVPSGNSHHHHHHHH

[5] = molecular target: T5, MICA*004 on HCC1534 cells (human, UniProt Q29983 24-383); experiment: cell-based or functional assay
[6] = molecular target: T6, MICB*005 on HCC1534 cells (human, UniProt Q29980 23-383); experiment: cell-based or functional assay
T6 sequence (looked up): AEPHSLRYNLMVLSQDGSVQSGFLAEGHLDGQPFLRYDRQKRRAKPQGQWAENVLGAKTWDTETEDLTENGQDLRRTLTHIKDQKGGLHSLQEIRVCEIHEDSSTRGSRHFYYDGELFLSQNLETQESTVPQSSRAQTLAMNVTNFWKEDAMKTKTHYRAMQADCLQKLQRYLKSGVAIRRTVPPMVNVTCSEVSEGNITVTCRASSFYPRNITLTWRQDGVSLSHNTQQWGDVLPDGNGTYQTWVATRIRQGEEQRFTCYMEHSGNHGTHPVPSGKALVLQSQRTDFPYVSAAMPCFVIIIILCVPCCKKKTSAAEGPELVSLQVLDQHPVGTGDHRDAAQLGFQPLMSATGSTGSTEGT

[7] = molecular target: T7, MICA*008 on MEL-JUSO cells (human, UniProt Q29983 24-317); experiment: cell-based or functional assay
T7 chain: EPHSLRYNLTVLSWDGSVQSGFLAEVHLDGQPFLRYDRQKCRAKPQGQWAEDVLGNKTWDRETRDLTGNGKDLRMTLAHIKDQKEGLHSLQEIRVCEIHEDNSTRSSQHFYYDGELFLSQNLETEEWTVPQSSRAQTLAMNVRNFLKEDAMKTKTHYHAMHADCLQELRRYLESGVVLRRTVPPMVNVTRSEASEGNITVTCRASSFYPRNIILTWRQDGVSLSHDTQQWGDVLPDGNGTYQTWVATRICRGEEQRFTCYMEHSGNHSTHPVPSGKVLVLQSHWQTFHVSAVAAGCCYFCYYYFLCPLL

[8] = molecular target: T8, MICA.008.a3.T204-S297.I236T.mIgG2a.Glyco13 (human; mouse, UniProt Q29983 204-297, engineered N-linked glycosylation site created by I236T); experiment: ELISA, coated variant;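 note: ELISA with plates coated at 2 ug/ml with MICA*008 alpha 3 glycosylation variants as murine IgG2a Fc fusions, antibody binding detected by HRP anti-human IgG Fc and TMB absorbance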
T8 construct: not shown: murine IgG2a Fc
T8 chain: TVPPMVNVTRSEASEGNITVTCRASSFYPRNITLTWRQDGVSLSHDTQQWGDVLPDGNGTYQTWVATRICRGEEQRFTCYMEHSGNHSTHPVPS

[9] = molecular target: T9, MICA.008.a3.T204-S297.R279N.mIgG2a.Glyco16 (human; mouse, UniProt Q29983 204-297, engineered N-linked glycosylation site R279N); experiment: ELISA, coated variant;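 note: ELISA with plates coated at 2 ug/ml with MICA*008 alpha 3 glycosylation variants as murine IgG2a Fc fusions, antibody binding detected by HRP anti-human IgG Fc and TMB absorbance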
T9 construct: not shown: murine IgG2a Fc
T9 chain: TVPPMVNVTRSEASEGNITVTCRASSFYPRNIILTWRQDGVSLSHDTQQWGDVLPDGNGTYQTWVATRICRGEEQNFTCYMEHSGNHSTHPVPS

[10] = molecular target: T10, MICA.008.a3.T204-S297.C-terminal insert of N298.G299.S300.mIgG2a.Glyco17 (human; mouse, UniProt Q29983 204-297, engineered N-linked glycosylation site at inserted N298); experiment: ELISA, coated variant;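 note: ELISA with plates coated at 2 ug/ml with MICA*008 alpha 3 glycosylation variants as murine IgG2a Fc fusions, antibody binding detected by HRP anti-human IgG Fc and TMB absorbance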
T10 construct: not shown: murine IgG2a Fc
T10 chain: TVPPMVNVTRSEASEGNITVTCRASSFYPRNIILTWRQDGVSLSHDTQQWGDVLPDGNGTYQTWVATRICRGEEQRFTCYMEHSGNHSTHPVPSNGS

[11] = molecular target: T11, MICA.008.a3.T204-S297.H248N.mIgG2a.Glyco15 (human; mouse, UniProt Q29983 204-297, engineered N-linked glycosylation site H248N); experiment: ELISA, coated variant;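 note: ELISA with plates coated at 2 ug/ml with MICA*008 alpha 3 glycosylation variants as murine IgG2a Fc fusions, antibody binding detected by HRP anti-human IgG Fc and TMB absorbance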
T11 construct: not shown: murine IgG2a Fc
T11 chain: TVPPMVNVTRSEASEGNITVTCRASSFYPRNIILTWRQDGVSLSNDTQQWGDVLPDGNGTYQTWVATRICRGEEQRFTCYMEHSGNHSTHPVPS

[12] = molecular target: T12, MICA.008.a3.R202-S297.R202N mIgG2a.Glyco11 (human; mouse, UniProt Q29983 203-297, engineered N-linked glycosylation site R202N); experiment: ELISA, coated variant
T12 construct: not shown: murine IgG2a Fc
T12 chain: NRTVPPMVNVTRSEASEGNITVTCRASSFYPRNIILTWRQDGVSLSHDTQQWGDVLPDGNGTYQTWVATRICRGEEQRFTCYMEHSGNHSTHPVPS

[13] = molecular target: T13, MICA.008.a3.T204-S297.E215N.mIgG2a.Glyco12 (human; mouse, UniProt Q29983 204-297, engineered N-linked glycosylation site E215N); experiment: ELISA, coated variant
T13 construct: not shown: murine IgG2a Fc
T13 chain: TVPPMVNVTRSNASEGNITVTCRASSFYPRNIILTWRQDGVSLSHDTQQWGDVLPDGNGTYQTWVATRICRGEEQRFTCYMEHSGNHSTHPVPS

[14] = molecular target: T2, MICA008.His (human MICA*008 alpha 3 …); experiment: SPR (Biacore), MICA*008 alpha-3 domain
[15] = molecular target: T5, MICA*004 on HCC1534 cells; experiment: cell-based or functional assay; remark: listed apart in the source
[16] = molecular target: T6, MICB*005 on HCC1534 cells; experiment: cell-based or functional assay; remark: listed apart in the source
[17] = molecular target: MICA*002 on cells (PANC-1; B16-MICA002) (human, UniProt Q29983 24-383); experiment: cell-based or functional assay
[18] = molecular target: T7, MICA*008 on MEL-JUSO cells; experiment: cell-based or functional assay
[19] = molecular target: T5, MICA*004 on HCC1534 cells; experiment: cell-based or functional assay; remark: listed apart in the source
[20] = molecular target: T6, MICB*005 on HCC1534 cells; experiment: cell-based or functional assay; remark: listed apart in the source
[21] = molecular target: T14, MICA.008.a3.T204-S297.E215N.G243N.H248N.R279N.C-terminal insert of N298.G299.S300.mIgG2a.Glyco4 … (human; mouse, engineered N-linked glycosylation sites E215N, G243N, H248N, R279N and inserted N298); experiment: ELISA, coated variant
T14 construct: not shown: murine IgG2a Fc

[22] = molecular target: T15, MILL1-MICA chimera.murine IgG2a Fc fusion (mouse MILL1 with grafted human MICA*008 …); experiment: ELISA, coated chimera
T15 construct: MICA*008 residues around NGTYQT on the 'back' and in the beta2 microglobulin interface grafted onto murine MILL1; also called MILL1-MICA*008 chimera

[23] = molecular target: T16, MICA.008.a3.T204-S297.G243N.mIgG2a.Glyco14 (human; mouse, UniProt Q29983 204-297, engineered N-linked glycosylation site G243N); experiment: ELISA, coated variant
T16 construct: not shown: murine IgG2a Fc
T16 chain: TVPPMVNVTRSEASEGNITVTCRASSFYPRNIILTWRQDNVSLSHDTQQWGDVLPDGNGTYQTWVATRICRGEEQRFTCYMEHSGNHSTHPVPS

| Binder | Kd [1] | Kd [2] | Kd [3] | Kd [4] | % max inhibition of shedding [5] | EC50 of shedding inhibition [5] | % max inhibition of shedding [6] | EC50 of shedding inhibition [6] | % max inhibition of shedding [7] | EC50 of shedding inhibition [7] | binding result [8] | binding result [9] | binding result [10] | binding result [11] | binding result [12] | binding result [13] | Kd [14] | EC50 of shedding inhibition [16] | Max % Inhibition of shedding [16] | maximum inhibition of shedding [19] | other results |
| --- | --- | --- | --- | --- | --- | --- | --- | --- | --- | --- | --- | --- | --- | --- | --- | --- | --- | --- | --- | --- | --- |
| 12H10 (antibody, V domains shown, Mouse variable domains; constant regions differ by assay) VH: DVQLQESGPGLVKPSQPLSLTCTVTGYSITSNYAWNWIRQFPGDKLEWMGYISSSGITKSNPSLKSRISITRDTSKNQFFLQLNSLTTEDTATYYCSRWSNWSFDVWGAGTTVTVSS VL: DIQMTQTPSSLSVSLGDRVTINCRASQDIHNYFNWYQQKPDGTIKLLIYYTSRFHSGVPSRFSGSGSGTDYSLTISNLEEEDIATYFCQQGNSLPPTFGGGTKLEIK | 7.02 nM | 1.48 nM | 10.7 nM | 25.8 nM | 76% | 0.0689 µg/mL | 54% | 0.139 µg/mL | 81% | 0.0103 µg/mL | binds | binds | binds | binds | binds | binds | 1.9 nM | – | – | – | – |
| 1D5 (antibody, V domains shown, Mouse variable domains; constant regions differ by assay (human IgG1 or mouse IgG2a); also called anti-MIC 1D5) VH: EIQLQQSGPELVKPGASVKVSCKASGYAFTSQNIYWVKQSHGKSLEWIGYIEPYNVVPMYNPKFKGKATLTVDKSSSSAYIHLNSLTSEDSAIYYCARSGSSNFDYWGQGTTLTVSS VL: EIILTQSPTTMAASPGEKITITCSASSSISSHYLHWYQQKSGFSPKLLIYRTSNLASGVPARFSGSGSGTSYSLTIGTMEAEDVATYYCQQGSSLPLTFGAGTKVEIK | 0.49 nM | 0.42 nM | 1.09 nM | 0.67 nM | 81% | 0.0435 µg/mL | 54% | 0.0128 µg/mL | 77% | 0.0087 µg/mL | binds | – | binds | binds | binds | binds | 0.5 nM | 0.0386 µg/mL | 59% | ~60% | EC50 of shedding inhibition [15]: 0.0136 µg/mL; Max % Inhibition of shedding [15]: 65%; EC50 of shedding inhibition [17]: 0.0342 µg/mL; Max % Inhibition of shedding [17]: 48%; EC50 of shedding inhibition [18]: 0.0207 µg/mL; Max % Inhibition of shedding [18]: 74%; maximum inhibition of shedding [20]: ~50% |
| 6E1.1.12 (antibody, V domains shown, Mouse hybridoma antibody; constant regions differ by assay) VH: QGQMQQSGAELVKPGASVKLSCKTSGFTFSDNYISWLKQKPGQSLEWIAWIYAGTGGSSYNQKFRDKAQLTVDTSSRTAYMQLSSLTTEDSAIYYCARHDYYGTSGAWFAYWGRGTLVTVSA VL: DVLMTQTPLSLPVSLGDQASISCRSSQHIVHSNENTYLEWYLQKPGQSPKLLIYKVSNRFSGVPDRFSGSGSGTDFTLKISRVEAEDLGVYYCFQGSHVPWTFGGGTKVEIK | 8.7 nM | 6.8 nM | 10 nM | 2.8 nM | – | 0.265 µg/mL and 0.157 µg/mL | – | 0.0791 µg/mL | – | – | – | – | – | – | binds | binds | – | 0.0724 µg/mL | 58% | ~50% | binding result [21]: binds; binding result [22]: binds |
| 2E5.2.3 (antibody, V domains shown, Mouse hybridoma antibody; constant regions differ by assay) VH: QGQMQQSGAELVKPGASVKLSCKTSGFTFSDNYISWLKQKPGQSLEWIAWIYAGTGGTSYNQKFTAKAQLTVDTSSSTAYMQFSSLTTEDSAIYYCARHDYYGTSGAWFAYWGQGTLVTVSA VL: DVLMTQTPLSLPVSLGDQASLSCRSSQNIVHINGNTYLEWYLQKPGQSPKLLIYKVSNRFSGVPDRFSGSGSGTDFTLKISRVEAEDLGVYYCFQGSHVPWTFGGGTKVEIK | 1.96 nM | 1.8 nM | 2.7 nM | 0.66 nM | – | 0.107 µg/mL and 0.23 µg/mL | 60% | 0.107 µg/mL | – | 0.195 µg/mL and 0.112 µg/mL | binds | binds | binds | binds | binds | binds | – | – | – | – | binding result [23]: binds; binding result [21]: binds; binding result [22]: binds |
